According to patent US20240109974A1 (SHANDONG SIMCERE BIOPHARMACEUTICAL, published 2024):

Assays:
[1] = target: T1, Human TNFR2-His (Sino 10417-H08H) (human, UniProt P20333 23-257); test: ELISA, plate coated with Human TNFR2-His, detection with anti-human IgG Fc-HRP [panel B]
T1 construct: Bought protein; also called recombinant human TNFR2 protein; not shown: His tag
T1 sequence (looked up): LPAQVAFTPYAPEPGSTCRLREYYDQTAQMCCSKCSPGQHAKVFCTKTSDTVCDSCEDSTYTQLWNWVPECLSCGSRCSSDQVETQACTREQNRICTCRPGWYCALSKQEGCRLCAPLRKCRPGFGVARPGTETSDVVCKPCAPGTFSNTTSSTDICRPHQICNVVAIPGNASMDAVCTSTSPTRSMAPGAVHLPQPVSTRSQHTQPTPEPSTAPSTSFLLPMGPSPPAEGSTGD
Method: (§1) The test humanized antibody against TNFR2 (as described in Example 1, the antibody was comprised of variable regions linked to IgG-Fc; the WT chimeric antibody also adopted the IgG-Fc structure) was subjected to 3.33-fold gradient dilution, loaded with 100 μl/well, and incubated with shaking at room temperature for 1.5 hours. The plate was washed, and then a working solution of murine anti-human IgG Fc-HRP (diluted at 1:10000) was added, loaded with 100 μl/well, and incubated with shaking at room temperature for 1.0 hour. The plate was washed again, and then the substrate TMB of HRP was added to develop colour. A stop solution was added to stop the reaction, and then a microplate reader (MD 13) was used to read the absorbance value. The binding curve of an antibody was drawn with antibody concentration as the abscissa and corresponding OD value as the ordinate, and fitted with four parameters (GraphPad Prism9) to calculate the EC50 value. The smaller the EC50 value, the stronger the binding ability of an antibody to human/cynomolgus monkey TNFR2. The binding effect of a humanized antibody was normalized to its corresponding human-murine chimeric antibody WT (see SEQ ID NOs: 38-43 for the sequence). The higher the percentage value, the better the binding effect of the humanized antibody. […]

[2] = target: T2, human TNFR2 on the surface of CHO-TNFR2 cells (human, UniProt P20333 23-461); test: flow cytometry competition: antibody titrated on CHO-TNFR2 cells, then human TNFα-biotin, detection with PE-streptavidin [panel B]
T2 construct: whole, on cells
T2 sequence (looked up): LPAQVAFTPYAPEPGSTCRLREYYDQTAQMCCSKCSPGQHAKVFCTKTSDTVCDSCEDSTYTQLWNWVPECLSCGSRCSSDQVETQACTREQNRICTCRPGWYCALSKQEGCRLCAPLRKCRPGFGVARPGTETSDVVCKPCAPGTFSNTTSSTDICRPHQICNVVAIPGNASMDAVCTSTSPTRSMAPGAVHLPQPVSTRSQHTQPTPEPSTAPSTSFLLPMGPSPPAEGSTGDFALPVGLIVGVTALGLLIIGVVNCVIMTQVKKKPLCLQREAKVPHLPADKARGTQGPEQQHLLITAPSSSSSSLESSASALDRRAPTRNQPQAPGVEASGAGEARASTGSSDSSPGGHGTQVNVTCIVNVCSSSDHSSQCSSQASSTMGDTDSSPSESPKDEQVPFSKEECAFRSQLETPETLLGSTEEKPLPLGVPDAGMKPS
Method: CHO stable cells highly expressing human TNFR2 were used for the experiment (the same as CHO-TNFR2 in Example 4). The CHO-TNFR2 cells were digested, washed twice with DPBS, then stained with Live/Dead (L/D) (20 minutes at room temperature), and plated at a density of 1×10⁵ cells/50 μl/well. A test anti-TNFR2 antibody was diluted to 6 μg/ml with a staining buffer as the starting concentration: the antibody was subjected to 3.33-fold gradient dilution, with a total of 7 concentration points. The diluted antibody was added to the plated cells at 50 μl/well, and the mixture was mixed well by gentle pipetting, and incubated at 4° C. for 30 minutes. Then the diluted 100 ng/ml of human TNFα-biotin was added at 100 μl/well, and the mixture was mixed well by gentle pipetting, and then incubated at 4° C. for 30 minutes. The mixture was washed twice with a staining buffer, and then 0.12 μg/ml PE-streptavidin (BioLegend, Cat #405204) was added at 100 μl/well; the resulting mixture was incubated at 4° C. for 30 minutes. The mixture was washed twice with a staining buffer, and then 150 μl of staining buffer was added to resuspend the cells; signals were detected by a flow cytometer (Thermo Attune NxT). […]

[3] = target: T1, Human TNFR2-His (Sino 10417-H08H); test: ELISA, plate coated with Human TNFR2-His, detection with anti-human IgG Fc-HRP [panel C]
Method: as §1

[4] = target: T3, Cynomolgus TNFR2-His (Sino 90102-C08H) (cynomolgus monkey, UniProt A0A2K5VET2 132-366); test: ELISA, plate coated with Cynomolgus TNFR2-His, detection with anti-human IgG Fc-HRP [panel C]
T3 construct: Bought protein; also called cynomolgus monkey TNFR2; recombinant cynomolgus monkey TNFR2 protein; not shown: His tag
T3 sequence: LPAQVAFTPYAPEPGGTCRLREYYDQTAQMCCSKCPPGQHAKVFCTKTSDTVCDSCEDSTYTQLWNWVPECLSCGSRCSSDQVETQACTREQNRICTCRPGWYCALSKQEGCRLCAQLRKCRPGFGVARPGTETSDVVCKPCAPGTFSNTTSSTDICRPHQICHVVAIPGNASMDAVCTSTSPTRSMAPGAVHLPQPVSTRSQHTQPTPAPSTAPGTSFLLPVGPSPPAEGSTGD
Method: as §1

[5] = target: T1, Human TNFR2-His (Sino 10417-H08H); test: ELISA, plate coated with Human TNFR2-His, detection with anti-human IgG Fc-HRP [panel A]
Method: as §1

B1: 219-WT (antibody, V domains shown)
VH: EVQLQESGAELVRPGASVKLSCKASGYSFTNYWMNWVKQRPGQGLEWIGMIHPSDTETRLNQNFKDKATLTVDKSSSTSYMQLSSPTSEDSAVYYCARGEGLGAARSVSMDYWGQGTTVTVSS
VL: DILMTQSPSSLSASLGDRVTISCRASQDISNYLNWYQQKPDGTVKVLIYYTAILHSGVPSRFSGSGSGTDYSLTISNLEQEDIATYFCQQGNTLPWTFGGGTKLEIK
notes: Human-murine chimeric wild-type molecule
EC50 (read off the curve) [1]: ~20 ng/mL
IC50 (read off the curve) [2]: ~50 ng/mL

B2: 224-WT (antibody, V domains shown)
VH: EVQLQESGPEIVKPGASVKLSCTASGFNNKDIYMHWVKQRPEQGLEWIGRIDPATGNTKHDPKFQDKATLSSDTSSNTAYLQFSSLTSEDTAVYYCAHSPYGDFGAMDYWGQGTTVTVSS
VL: DIQMTQSPAIMSASLGERVTMTCTASSSVSSNYLHWYQQKPGSSPKLWIYSTSNLPSGVPARFSGSGSGTSYSLTISSMEAEDAATYYCHQYHRSPWTFGGGTKLEIK
notes: Human-murine chimeric wild-type molecule; also called human-murine chimeric antibody WT of #224
EC50 (read off the curve) [3]: ~10 ng/mL
EC50 (read off the curve) [4]: ~10 ng/mL

B3: 001-WT (antibody, V domains shown)
VH: EVQLQESGGGLVQPGGSLNLSCAASGFAFSTYDLSWVRQTPEKRLEWVAYINNGGISTYYSDTVKGRFTISRDNAKNTLYLQMSSLKSEDTAMYYCVRGPFYGSANYFDYWGQGTTVTVSS
VL: EIVMTQSPASLSLSVGETVTITCRTSESIYSNLPWYQQKQGKSPQLLVYDATKLAEGVPSRFSGSESGTQYSLKINSLQSEDFGTYYCQHFWVTPWTFGGGTKLEIK
notes: Human-murine chimeric wild-type molecule; also called human-murine chimeric antibody WT of #001
EC50 (read off the curve) [5]: ~10 ng/mL
